The results in this text go back to publication doi:10.1101/2021.12.02.470928, “The PNUTS-PAD domain recruits MYC to the PNUTS:PP1 phosphatase complex via the oncogenic MYC-MB0 region” (bioRxiv, 2021).

The test concerns the target T1, PNUTS(1-148), PNUTS amino-terminal domain (PAD) (UniProt Q96QC0 1-148).
T1 construct: PNUTS (PP1 nuclear targeting subunit), residues 1-148, termed PAD; Vector pET28-MHL (RRID:Addgene_26096) with N-terminal His6 tag and TEV site; Used 13C,15N-labelled in some NMR experiments; also called apo PAD; source: E. coli BL21 (DE3), purified (Ni-NTA, gel filtration)
T1 sequence (looked up): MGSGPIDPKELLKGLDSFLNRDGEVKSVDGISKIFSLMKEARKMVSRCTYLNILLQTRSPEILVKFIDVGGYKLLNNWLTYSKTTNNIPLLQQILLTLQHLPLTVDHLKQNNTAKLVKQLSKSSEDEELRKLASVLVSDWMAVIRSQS
The test is described as follows: BLI; C-terminally biotinylated MYC constructs or N-terminally biotinylated peptides on SA biosensors, dipped into serial dilutions of PAD (WT or mutant); Octet RED384; room temperature; HBS-EP (10 mM HEPES pH 7.4, 150 mM NaCl, 3 mM EDTA, 0.005% P20) with 0.002 mg/ml BSA; Kd from steady-state response curves; apparent. To be noted: both partners purified. A general note: BLI is a label-free optical method that tracks binding on a fibre tip over time.

B1: biotinylated MYC(1-88) with C-terminal AVI tag (domain or fragment, UniProt P01106-2 16-103, looked up)
chain: MPLNVSFTNRNYDLDYDSVQPYFYCDEEENFYQQQQQSELQPPAPSEDIWKKFELLPTPPLSPSRRSGLCSPSYVAVTPFSLRGDNDG
modifications: biotin on the C-terminal AVI tag
notes: MYC, residues 1-88 (contains MB0 and MBI); Purified 'as described above'; also called wild-type MYC(1-88); recombinant biotinylated MYC N-terminal protein; source: E. coli BL21 (DE3)-BirA, biotinylated by co-expressed BirA, purified; not shown: AVI tag, C-terminal, kept
On to B1, for which the Kd stood at 3.5 µM.
